We go through 4 molecules from patent US20120304318A1, “CANCER DIAGNOSIS AND TREATMENT” (CAMBRIDGE ENTERPRISE LTD, priority 2009, published 2012).

Test [1] relates to EJ28 cells. In words: Apoptosis of stably transfected EJ28 cells with or without Mitomycin C (caspase activity). It counts as cell-based. As to conditions: for endogenous apoptosis: stable overexpression in EJ28, no drug; for apoptosis induced by Mitomycin C: stable overexpression in EJ28, 1 μg/ml Mitomycin C, caspase activity. As for the experimental part: Two control EJ28 cells, two OMD stably-transfected EJ28 cells, and a PRELP stably-transfected EJ28 cells are treated with 1 μg/ml of Mitomycin C. Also, as a positive control, EJ28 cells are treated with higher concentration 5 μg/ml of Mitomycin C as a positive control. Then, the ratios of apoptotic cells were determined by measuring caspase activities.
(§1) OMD and PRELP were subcloned into pIRES2-EGFP (Clontech). A bladder cancer cell line, EJ28, was stably transfected with these plasmids by selection with G418. Two independent clones were derived for each plasmid (except MT-Prelp, where it was only possible to derive one). Then, the properties of these cells were examined. […] These cells include apoptotic ones. This contrasted with control cells, which were flat and cuboidal. […] Two independent clones of OMD and EGFP expressing EJ28 cells, two independent control EJ28 clones expressing EGFP, and a PRELP with myc tag and EGFP expressing EJ28 cells were treated with 1 μg/ml Mitomycin C. Also, EGFP expressing EJ28 cells were treated with higher concentration of Mitomycin C (5 μg/ml) as a positive control.

For test [2], the system named is EJ28 cells. In words: Anchorage-independent growth in soft agar. It counts as cell-based. Conditions: stable overexpression in EJ28; 2 weeks; relative to control cells. The protocol: FIG. 14. OMD abolishes, and PRELP inhibits, anchorage-independent growth of EJ28 cells. Cells were seeded in DMEM+0.3% agar, overlying a lower layer of DMEM+0.6% agar. 3000 cells were seeded into wells of a 6-well dish in triplicate. Plates were incubated for 2 weeks, and colonies were counted. Error bars are standard deviations. Statistical analysis consisted of one-way ANOVA, with post-hoc Newman-Keuls testing. Letter groupings, “a”, “b” etc, refer to the results of the Newman-Keuls test.
OMD and PRELP also affect the anchorage-independence, a hallmark of cancer cells. Anchorage-independence was measured by seeding cells in soft agar, incubating them for 2 weeks and counting the number of resultant colonies.

The test system of the next test is HEK 293 cells. Nature of the test: Mitomycin C induced apoptosis in normal cells (annexin and caspase activity assays). In kind it is cell-based. Conditions: stable overexpression in HEK 293; 1 ug/ml mitomycin C, 24 h. As for the experimental part: FIG. 10. OMD expression protects normal cells from apoptosis, whilst PRELP expression has no effect. HEK 293 cells stably transfected with either CAT (a control), OMD or PRELP, and assayed to measure the level of apoptosis they underwent in response to treatment with 1 ug/ml mitomycin C. (a) Annexin assay. Cells were treated one dose of the drug, and 24 hours later, they were trypsinized, incubated in the presence of Alexafluor-647 conjugated annexin and propidium iodide, and examined by flow cytometry. The annexin-positive, PI-negative subpopulation, comprising live cells that were in the process of undergoing apoptosis, was identified. (b) Caspase activity assay. One dose of the drug was administered, and 24 h later, cells were incubated in the presence of a substrate that, upon cleavage by caspases, was converted into a luminescent product. Luminescence was quantified and taken to be proportional to caspase activity. In both (a) and (b), error bars refer to standard deviations, and statistical analysis consisted of t-tests.

Test [3] concerns EJ28 bladder cancer cell line. In words: Proliferation and cell cycle of stably transfected EJ28 cells (cell counting, BrdU incorporation, FACS). In kind it is cell-based.
Description: Also disclosed herein are novel methods for treatment of cancer based on activation of OMD and/or PRELP. […] If so, it can be inferred that the activation of OMD or/and PRELP would inhibit tumourigenesis and provide novel treatment of cancer. […] To this end, OMD or PRELP was stably over-expressed in the bladder cancer cell line EJ28.
as §1

The subject of test [4] is EJ28 bladder cancer cells. In words: EJ28 xenograft in nude mice, tumour volume. In kind it is in vivo, MF1 nude mice. Conditions: day 18. The protocol:
To evaluate in vivo effect of OMD or PRELP activation in cancer cells, xenograft experiments were performed using nude mice. EJ28 bladder cancer cells expressing OMD or EJ28 control cells were injected into the mice and cancer development was monitored for three weeks. […] This observation confirms the utility of OMD/PRELP based cancer treatment.
FIG. 15 Effect of xenograft of EJ28 cells overexpressing OMD protein. EJ28 bladder cancer cells or EJ28 cells overexpressing OMD were inoculated into nude mice and then cancer development was monitored for three weeks. The result at 18 days is shown.
Six- to eight-week-old male MF1 nude mice were obtained from Royal Free Hospital London UK. Tumors were induced by inoculation of 5×10^6 EJ28 cancer bladder cells s.c. on the back. EJ28 tumour-bearing MF-1 mice (n=5) were injected with cells subcloned with stably transfected with OMD-myc tag in pIRES2-EGFP vector, using Lipofectamine 2000 (Invitrogen). […] Tumour dimensions were measured continuously using a caliper and tumour volumes were calculated using the equation: volume=(π/6)×a×b×c, where a, b, and c represent three orthogonal axes of the tumour. Animals were assessed for tumour growth over 25-day period.
The biological activity of OMD on EJ28 tumour-bearing mice was determined by measuring changes in tumour volume.

Where [5] appears, read: stable overexpression in EJ28 vs control cells.

As to `CO[C@@]12[C@H](COC(N)=O)C3=C(C(=O)C(C)=C(N)C3=O)N1C[C@@H]1N[C@@H]12` [Mitomycin C, reference compound], in the test on EJ28 cells [1] (EGFP expressing EJ28 cells, 5 μg/ml Mitomycin C, positive control), the cell death entry was “massive cell death”.

B1: PRELP: human PRELP protein (SEQ ID NO:2), stably overexpressed in cells (myc tagged in EJ28) (protein)
chain: QPTRRPRPGTGPGRRPRPRPRPTPSFPQPDEPAEPTDLPPPLPPGPPSIFPDCPRECYCPPDFPSALYCDSRNLRKVPVIPPRIHYLYLQNNFITELPVESFQNATGLRWINLDNNRIRKIDQRVLEKLPGLVFLYMEKNQLEEVPSALPRNLEQLRLSQNHISRIPPGVFSKLENLLLLDLQHNRLSDGVFKPDTFHGLKNLMQLNLAHNILRKMPPRVPTAIHQLYLDSNKIETIPNGYFKSFPNLAFIRLNYNKLTDRGLPKNSFNISNLLVLHLSHNRISSVPAINNRLEHLYLNNNSIEKINGTQICPNDLVAFHDFSSDLENVPHLRYLRLDGNYLKPPIPLDLMMCFRLLQSVVI
With B1, in the test on EJ28 cells [1], the endogenous apoptosis entry was “higher rates of endogenous apoptosis” and the “apoptosis induced by Mitomycin C” value is reported as “even higher rates of apoptosis”. For the same molecule, the “anchorage-independent growth / colony-forming ability in soft agar” value in the test with EJ28 cells [2] is “a third”. Also, the “Mitomycin-C mediated apoptosis of normal cells” value in the test with HEK 293 cells is given as “had no effect”. In addition, the “cell cycle arrest / inhibition” value in test [3] (stable overexpression in EJ28) is reported as “cell cycle inhibition was not observed”. Besides, in test [3] (setting [5]), the “proliferation (cell-counting assay)” value is “inhibit proliferation”.

B2: OMD-myc tag: OMD with myc tag in pIRES2-EGFP vector, stably transfected into EJ28 cells (protein, UniProt Q99983 21-421, looked up)
Osteomodulin: QYETYQWDEDYDQEPDDDYQTGFPFRQNVDYGVPFHQYTLGCVSECFCPTNFPSSMYCDNRKLKTIPNIPMHIQQLYLQFNEIEAVTANSFINATHLKEINLSHNKIKSQKIDYGVFAKLPNLLQLHLEHNNLEEFPFPLPKSLERLLLGYNEISKLQTNAMDGLVNLTMLDLCYNYLHDSLLKDKIFAKMEKLMQLNLCSNRLESMPPGLPSSLMYLSLENNSISSIPEKYFDKLPKLHTLRMSHNKLQDIPYNIFNLPNIVELSVGHNKLKQAFYIPRNLEHLYLQNNEIEKMNLTVMCPSIDPLHYHHLTYIRVDQNKLKEPISSYIFFCFPHIHTIYYGEQRSTNGQTIQLKTQVFRRFPDDDDESEDHDDPDNAHESPEQEGAEGHFDLHYYENQE
modifications: myc tag
notes: OMD with myc tag in pIRES2-EGFP vector, stably transfected into EJ28 cells
Take B2: in test [4] (EJ28 cells stably transfected with OMD-myc tag inoculated s.c. in MF-1 nude mice, control 37.91±16.57), the tumour size came to 1.60±1.0 mm^3. In addition, the tumour growth entry in test [4] (OMD-myc tag transfected EJ28 cell line vs vector control) was “completely inhibited”.

B3: OMD: human osteomodulin protein (SEQ ID NO:1), stably overexpressed in cells from an expression plasmid (protein, listed as Homo sapiens)
chain: MGFLSPIYVIFFFFGVKVHCQYETYQWDEDYDQEPDDDYQTGFPFRQNVDYGVPFHQYTLGCVSECFCPTNFPSSMYCDNRKLKTIPNIPMHIQQLYLQFNEIEAVTANSFINATHLKEINLSHNKIKSQKIDYGVFAKLPNLLQLHLEHNNLEEFPFPLPKSLERLLLGYNEISKLQTNAMDGLVNLTMLDLCYNYLHDSLLKDKIFAKMEKLMQLNLCSNRLESMPPGLPSSLMYLSLENNSISSIPEKYFDKLPKLHTLRMSHNKLQDIPYNIFNLPNIVELSVGHNKLKQAFYIPRNLEHLYLQNNEIEKMNLTVMCPSIDPLHYHHLTYIRVDQNKLKEPISSYIFFCFPHIHTIYYGEQRSTNGQTIQLKTQVFRRFPDDDDESEDHDDPDNAHESPEQEGAEGHFDLHYYENQE
With B3, in the test with EJ28 cells [1], the endogenous apoptosis entry is given as “increased cell death by apoptosis” and the “apoptosis induced by Mitomycin C” value is “markedly sensitized”. The “anchorage-independent growth / colony-forming ability in soft agar” value with EJ28 cells [2] was “absolutely abolished”. In the test on HEK 293 cells, the “Mitomycin-C mediated apoptosis of normal cells” value was “protected normal cells”. Further, in test [3] (stable overexpression in EJ28), the “cell cycle arrest / inhibition” value is “enhanced cell cycle arrest at G1 phase” and the “proportion of cells in S-phase (FACS analysis)” value is recorded as “lower proportion of cells in S-phase”. In test [3] (setting [5]), the BrdU incorporation result is “lower rate of BrdU incorporation” and the “proliferation (cell-counting assay)” value is “proliferated more slowly than control cells”.
